Test results: the supplement of paper PMC9233669
This sample holds only a part of the variants without activity.

How the values were obtained:
[1] = tested on: biotinyl-Phe-oxazolone; assay: self-aminoacylation, catalytic enhancement (BFO) (fold over background); higher = more active; k-Seq, kA / k0A0; sequences stand for … in GGGAAUGGAUCCACAUCUACGAAUUC…UUCACUGCAGACUUGACGAAGCUG
Summary of the method: (§1)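 Working in 50 μL HEPES/NaCl/KCl/MgCl2/CaCl2 buffer with 5% acetonitrile at pH 6.9–7.0, mutagenized RNA pools (0.43 μM; 21-nt variable region) were reacted with 2–1250 μM of each biotinyl-aminoacyl-oxazolone for 90 minutes at room temperature. Streptavidin capture followed, with quantification by triplicate qPCR and Illumina sequencing. Catalytic enhancement is reported as median kA over the uncatalyzed rate, the low-activity peak of a bimodal Gaussian fit to the data.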

[2] = tested on: biotinyl-Ile-oxazolone; assay: self-aminoacylation, catalytic enhancement (BIO) (fold over background); higher = more active; k-Seq, kA / k0A0; sequences stand for … in GGGAAUGGAUCCACAUCUACGAAUUC…UUCACUGCAGACUUGACGAAGCUG
Summary of the method: as §1

[3] = tested on: biotinyl-Leu-oxazolone; assay: self-aminoacylation, catalytic enhancement (BLO) (fold over background); higher = more active; k-Seq, kA / k0A0; sequences stand for … in GGGAAUGGAUCCACAUCUACGAAUUC…UUCACUGCAGACUUGACGAAGCUG
Summary of the method: as §1

[4] = tested on: biotinyl-Val-oxazolone; assay: self-aminoacylation, catalytic enhancement (BVO) (fold over background); higher = more active; k-Seq, kA / k0A0; sequences stand for … in GGGAAUGGAUCCACAUCUACGAAUUC…UUCACUGCAGACUUGACGAAGCUG
Summary of the method: as §1

[5] = tested on: biotinyl-Trp-oxazolone; assay: self-aminoacylation, catalytic enhancement (BWO) (fold over background); higher = more active; k-Seq, kA / k0A0; sequences stand for … in GGGAAUGGAUCCACAUCUACGAAUUC…UUCACUGCAGACUUGACGAAGCUG
Summary of the method: as §1

[6] = tested on: biotinyl-Met-oxazolone; assay: self-aminoacylation, catalytic enhancement (BMO) (fold over background); higher = more active; k-Seq, kA / k0A0; sequences stand for … in GGGAAUGGAUCCACAUCUACGAAUUC…UUCACUGCAGACUUGACGAAGCUG
Summary of the method: as §1

Sequence | self-aminoacylation [1] | self-aminoacylation [2] | self-aminoacylation [3] | self-aminoacylation [4] | self-aminoacylation [5] | self-aminoacylation [6]
CUUACCCAGGUCAUCGAGUGA [Fam2.1 aminoacylation ribozyme variant] | 4.25 | 3.04 | 4.56 | 3.6 | 5.54 | 4.94
CUUACCCUGGCCAUCGAGUGA [Fam2.1 aminoacylation ribozyme variant] | 9.12 | 2.78 | 4.34 | 2.65 | 3.51 | 2.99
CUUACCCUGGGCAUCGAGUGA [Fam2.1 aminoacylation ribozyme variant] | 20.7 | 2.57 | 7.09 | 3.33 | 6.01 | 5.55
CUUACCCUGGUAAUCGAGUGA [Fam2.1 aminoacylation ribozyme variant] | 24.3 | 3.22 | 7.47 | 3.18 | 8.08 | 6.18
CUUACCCUGGUCAGCGAGUGA [Fam2.1 aminoacylation ribozyme variant] | 29.2 | 3.42 | 6.11 | 3.69 | 7.19 | 4.38
CUUACCCUGGUCAUCGAGCGA [Fam2.1 aminoacylation ribozyme variant] | 1.09 | 1.36 | 1.96 | 1.35 | 2.72 | 2.13
CUUACCCUGGUCAUCGGGUGA [Fam2.1 aminoacylation ribozyme variant] | 93.6 | 5.25 | 17.1 | 7.68 | 13.9 | 16
CUUACCCUGGUUAUCGAGUGA [Fam2.1 aminoacylation ribozyme variant] | 23.2 | 3.35 | 7.11 | 3.58 | 8.54 | 6.78
CUUAUCCUGGUCAUCGAGUGA [Fam2.1 aminoacylation ribozyme variant] | 7.87 | 3.22 | 6.22 | 3.42 | 6.96 | 6.26
CUUCACAUAGGUCAUCGGGUG [Fam2.2 aminoacylation ribozyme variant] | 33 | 3.77 | 6.86 | 3.98 | 5.58 | 5.24
CUUCACCUAGGGCAUCGGGUG [Fam2.2 aminoacylation ribozyme variant] | 17.5 | 2.75 | 3.99 | 3.04 | 4.25 | 2.91
CUUCACCUAGGUCAUCGAGUG [Fam2.2 aminoacylation ribozyme variant] | 9.18 | 4.29 | 7.37 | 4.22 | 4.55 | 5.78
CUUCACCUAGGUCAUCGGGGG [Fam2.2 aminoacylation ribozyme variant] | 3.92 | 2.31 | 1.86 | 2.37 | 3.57 | 2.35
CUUCACCUAGGUCAUCUGGUG [Fam2.2 aminoacylation ribozyme variant] | 4.76 | 1.58 | 2.25 | 1.74 | 2.15 | 1.79
CUUCACCUAGGUCGUCGGGUG [Fam2.2 aminoacylation ribozyme variant] | 9.55 | 2.2 | 2.43 | 2.54 | 2.19 | 2.39
CUUCACCUAGGUGAUCGGGUG [Fam2.2 aminoacylation ribozyme variant] | 20.6 | 3.56 | 4.03 | 3.9 | 4.93 | 3.91
CUUCACCUAGGUUAUCGGGUG [Fam2.2 aminoacylation ribozyme variant] | 12.2 | 3.13 | 4.8 | 3.51 | 3.63 | 5.11
CUUCACCUCGGUCAUCGGGUG [Fam2.2 aminoacylation ribozyme variant] | 44.6 | 3.54 | 5.57 | 4.37 | 5.07 | 5.17
CUUCACCUUGGUCAUCGGGUG [Fam2.2 aminoacylation ribozyme variant] | 45.5 | 3.13 | 5.93 | 4.27 | 5.5 | 5.39
CUUCUCCAAACAAUCGGUCUG [Fam1A.1 aminoacylation ribozyme variant] | 1.26 | 0.67 | 0.723 | 0.831 | 0.962 | 0.772
CUUCUUCAAACAAUCGAUCUG [Fam1A.1 aminoacylation ribozyme variant] | 1.98 | 0.624 | 0.597 | 0.647 | 0.841 | 0.672
CUUCUUCAAACAAUCGGACUG [Fam1A.1 aminoacylation ribozyme variant] | 7.56 | 0.822 | 0.698 | 0.677 | 3.43 | 0.652
CUUCUUCAAACAAUCGGGCUG [Fam1A.1 aminoacylation ribozyme variant] | 5.81 | 1.29 | 1.43 | 1.06 | 4.55 | 1.25
